Like-named read-outs stand apart in the source and are kept apart here.
Key:
[1] = molecular target: hG7-BM1 (hVH-B1, hVL-B1) (human); assay: SPR; Biacore X100; CD24-GST flowed over immobilized antibody; 1:1 binding model; procedure as in ref. 45
[2] = molecular target: hG7-BM1 (hVH-B1, hVL-B1) (human); assay: as above; remark: listed apart in the source

hG7-BM1 (hVH-B1, hVL-B1) (human), sequence (heavy, as listed by the source, chain 1 of 2): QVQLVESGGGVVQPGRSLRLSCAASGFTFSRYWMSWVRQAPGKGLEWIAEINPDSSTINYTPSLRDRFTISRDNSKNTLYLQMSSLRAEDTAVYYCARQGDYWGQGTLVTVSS
hG7-BM1 (hVH-B1, hVL-B1) (human), sequence (light, as listed by the source, chain 2 of 2): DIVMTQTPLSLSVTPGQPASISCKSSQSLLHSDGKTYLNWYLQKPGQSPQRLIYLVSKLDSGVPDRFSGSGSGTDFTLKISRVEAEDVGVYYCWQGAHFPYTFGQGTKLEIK

Binder: SETTTGTSSNSSQSTSNSGLAPNPTNATTKAAG (natural protein) [CD24-GST]
- Kd [1]: 1640 pM
- koff [1]: 0.000764 s⁻¹
- kon [1]: 465000 M⁻¹ s⁻¹
- Kd [2]: 164 pM
